The values that follow come from patent US20190328910A1 (University of California, published 2019).

*: point of attachment. Benzoyl(4-F) = O=C(c1ccc(F)cc1)*

The target of one experiment is αvβ3 integrin (purified) (UniProt P06756 31-992; P05106 27-718). In words: competitive binding ELISA, purified integrin; competitor biotinylated natural ligand. As for the experimental part:
(§1) Anti-αᵥ capture antibody P2W7 (5 μg/mL, Novus Biologicals) was coated onto Nunc MaxiSorp 96-well plates, followed by blocking with BSA overnight at 4° C. All wells were washed 3 times with PBS, followed by plating of purified integrin (3 μg/mL) and incubating at room temperature in a humid chamber for 1 hour. Peptide solutions, titrated (1 μM-1 pM for integrin and 100 μM-100 pM for αᵥβ₃ integrin) and mixed with biotinylated natural ligand, were added to the integrin-coated wells in triplicate. After incubating for an hour at room temperature, the plate was washed 3 times with wash buffer. Captured biotinylated natural ligand was detected with ExtrAvidin-HRP and developed with TMB substrate. Half-maximal inhibitory concentration (IC₅₀) of peptides was determined fitting to sigmoidal dose-response model in GraphPad Prism 6.0 (FIG. 5A). Results are shown in FIG. 5B and below in Table 2.
(In an ELISA, binding on a coated surface is turned into a signal by an enzyme label.)

Another experiment has as its target αvβ1 integrin (purified) (UniProt P06756 31-992; P05556 21-728). Described as above. How it is done: as §1
Experiment [1] deals with T1, αvβ6 integrin (purified) (UniProt P06756 31-992; P18564 22-707).
T1 construct: Purified integrin captured on plate by anti-αv antibody P2W7; also called purified integrin
The description is as above. How it is done:
as §1

The target of another experiment is αvβ8 integrin (purified) (UniProt P06756 31-992; P26012 43-684). The description is as above. As for the experimental part:
as §1

In experiment [2] the target is T1, αvβ6 integrin (purified). In words: ELISA, αvβ6 integrin.

αvβ8 integrin (purified), sequence (P06756 31-992, chain 1 of 2): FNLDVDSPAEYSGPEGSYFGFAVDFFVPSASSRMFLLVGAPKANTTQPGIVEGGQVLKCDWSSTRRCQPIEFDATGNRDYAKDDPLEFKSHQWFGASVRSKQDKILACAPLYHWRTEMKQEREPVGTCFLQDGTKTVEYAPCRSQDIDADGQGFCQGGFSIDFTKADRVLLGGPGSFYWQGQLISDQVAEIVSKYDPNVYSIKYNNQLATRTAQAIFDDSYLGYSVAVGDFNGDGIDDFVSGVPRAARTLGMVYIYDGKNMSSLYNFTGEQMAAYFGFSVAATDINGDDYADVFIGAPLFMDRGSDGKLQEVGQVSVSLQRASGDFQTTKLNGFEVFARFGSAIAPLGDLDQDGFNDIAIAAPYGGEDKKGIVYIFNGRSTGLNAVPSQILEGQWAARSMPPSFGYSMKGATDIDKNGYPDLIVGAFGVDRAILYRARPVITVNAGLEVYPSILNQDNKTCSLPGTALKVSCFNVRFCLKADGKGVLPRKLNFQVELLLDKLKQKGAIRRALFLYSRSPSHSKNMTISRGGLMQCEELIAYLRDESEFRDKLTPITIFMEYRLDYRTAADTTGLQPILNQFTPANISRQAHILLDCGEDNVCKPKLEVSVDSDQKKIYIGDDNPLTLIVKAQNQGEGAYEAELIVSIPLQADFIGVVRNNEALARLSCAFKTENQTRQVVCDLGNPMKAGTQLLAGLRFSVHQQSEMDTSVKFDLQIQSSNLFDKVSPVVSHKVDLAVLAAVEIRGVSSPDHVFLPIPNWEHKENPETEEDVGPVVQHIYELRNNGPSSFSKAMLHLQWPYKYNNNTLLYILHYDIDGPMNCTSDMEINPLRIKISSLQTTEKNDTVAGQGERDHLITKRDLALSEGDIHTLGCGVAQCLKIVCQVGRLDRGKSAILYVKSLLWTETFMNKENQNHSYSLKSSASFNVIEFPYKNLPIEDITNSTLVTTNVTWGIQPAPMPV
αvβ8 integrin (purified), sequence (P26012 43-684, chain 2 of 2): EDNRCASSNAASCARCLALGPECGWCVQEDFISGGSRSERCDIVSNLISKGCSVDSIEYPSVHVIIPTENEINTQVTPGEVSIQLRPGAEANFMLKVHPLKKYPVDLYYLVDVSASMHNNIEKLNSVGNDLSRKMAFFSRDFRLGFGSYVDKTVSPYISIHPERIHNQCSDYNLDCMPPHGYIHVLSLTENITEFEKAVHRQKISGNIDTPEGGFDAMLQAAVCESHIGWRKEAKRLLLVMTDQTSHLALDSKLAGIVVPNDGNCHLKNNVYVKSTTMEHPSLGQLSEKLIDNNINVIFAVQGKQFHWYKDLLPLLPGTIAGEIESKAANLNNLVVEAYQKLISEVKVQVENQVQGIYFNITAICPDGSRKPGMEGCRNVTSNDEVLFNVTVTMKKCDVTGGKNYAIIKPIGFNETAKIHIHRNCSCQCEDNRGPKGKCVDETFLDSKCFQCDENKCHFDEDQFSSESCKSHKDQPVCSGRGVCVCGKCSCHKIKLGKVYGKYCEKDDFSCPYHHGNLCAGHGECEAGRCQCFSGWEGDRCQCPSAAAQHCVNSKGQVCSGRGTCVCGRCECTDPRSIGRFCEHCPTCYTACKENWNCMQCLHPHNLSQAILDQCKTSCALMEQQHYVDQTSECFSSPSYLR
T1 sequence (P06756 31-992, chain 1 of 2): as the sequence (P06756 31-992, chain 1 of 2) above
T1 sequence (P18564 22-707, chain 2 of 2): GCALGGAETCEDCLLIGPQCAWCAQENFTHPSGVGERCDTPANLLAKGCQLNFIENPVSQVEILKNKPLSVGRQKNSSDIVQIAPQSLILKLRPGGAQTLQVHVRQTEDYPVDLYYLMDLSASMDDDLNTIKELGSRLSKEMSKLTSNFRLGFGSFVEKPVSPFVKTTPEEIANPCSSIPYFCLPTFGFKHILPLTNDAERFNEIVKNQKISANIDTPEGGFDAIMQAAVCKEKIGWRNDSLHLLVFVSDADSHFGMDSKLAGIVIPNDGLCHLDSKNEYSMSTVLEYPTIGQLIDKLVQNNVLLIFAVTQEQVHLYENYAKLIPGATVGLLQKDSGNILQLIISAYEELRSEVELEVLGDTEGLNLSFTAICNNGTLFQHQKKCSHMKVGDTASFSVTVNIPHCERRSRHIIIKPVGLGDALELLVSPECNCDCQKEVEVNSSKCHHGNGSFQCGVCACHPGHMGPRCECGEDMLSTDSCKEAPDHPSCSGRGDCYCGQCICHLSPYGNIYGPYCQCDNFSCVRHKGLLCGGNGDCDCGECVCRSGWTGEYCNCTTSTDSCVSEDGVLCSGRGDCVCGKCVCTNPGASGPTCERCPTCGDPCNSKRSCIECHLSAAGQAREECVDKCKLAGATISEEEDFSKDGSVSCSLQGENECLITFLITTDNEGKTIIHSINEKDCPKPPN
αvβ1 integrin (purified), sequence (P06756 31-992, chain 1 of 2): as the sequence (P06756 31-992, chain 1 of 2) above
αvβ1 integrin (purified), sequence (P05556 21-728, chain 2 of 2): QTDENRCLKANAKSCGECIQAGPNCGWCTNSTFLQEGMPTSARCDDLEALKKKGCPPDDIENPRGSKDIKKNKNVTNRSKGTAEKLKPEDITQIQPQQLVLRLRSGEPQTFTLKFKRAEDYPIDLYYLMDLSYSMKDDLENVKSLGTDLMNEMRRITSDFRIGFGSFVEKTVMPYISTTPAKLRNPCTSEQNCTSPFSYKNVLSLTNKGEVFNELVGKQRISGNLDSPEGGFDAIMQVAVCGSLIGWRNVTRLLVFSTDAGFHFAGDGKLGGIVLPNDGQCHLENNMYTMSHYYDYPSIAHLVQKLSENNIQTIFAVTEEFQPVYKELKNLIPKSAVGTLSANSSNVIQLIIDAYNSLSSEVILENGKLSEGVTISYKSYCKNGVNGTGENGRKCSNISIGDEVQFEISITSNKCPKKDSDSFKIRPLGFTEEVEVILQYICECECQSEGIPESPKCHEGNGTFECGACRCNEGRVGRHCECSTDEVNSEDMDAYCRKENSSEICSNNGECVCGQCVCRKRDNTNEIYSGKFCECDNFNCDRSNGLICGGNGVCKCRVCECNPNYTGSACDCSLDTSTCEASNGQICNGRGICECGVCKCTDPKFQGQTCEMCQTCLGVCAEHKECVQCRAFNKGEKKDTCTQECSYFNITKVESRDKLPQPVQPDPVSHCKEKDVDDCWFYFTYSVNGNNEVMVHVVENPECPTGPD
αvβ3 integrin (purified), sequence (P06756 31-992, chain 1 of 2): as the sequence (P06756 31-992, chain 1 of 2) above
αvβ3 integrin (purified), sequence (P05106 27-718, chain 2 of 2): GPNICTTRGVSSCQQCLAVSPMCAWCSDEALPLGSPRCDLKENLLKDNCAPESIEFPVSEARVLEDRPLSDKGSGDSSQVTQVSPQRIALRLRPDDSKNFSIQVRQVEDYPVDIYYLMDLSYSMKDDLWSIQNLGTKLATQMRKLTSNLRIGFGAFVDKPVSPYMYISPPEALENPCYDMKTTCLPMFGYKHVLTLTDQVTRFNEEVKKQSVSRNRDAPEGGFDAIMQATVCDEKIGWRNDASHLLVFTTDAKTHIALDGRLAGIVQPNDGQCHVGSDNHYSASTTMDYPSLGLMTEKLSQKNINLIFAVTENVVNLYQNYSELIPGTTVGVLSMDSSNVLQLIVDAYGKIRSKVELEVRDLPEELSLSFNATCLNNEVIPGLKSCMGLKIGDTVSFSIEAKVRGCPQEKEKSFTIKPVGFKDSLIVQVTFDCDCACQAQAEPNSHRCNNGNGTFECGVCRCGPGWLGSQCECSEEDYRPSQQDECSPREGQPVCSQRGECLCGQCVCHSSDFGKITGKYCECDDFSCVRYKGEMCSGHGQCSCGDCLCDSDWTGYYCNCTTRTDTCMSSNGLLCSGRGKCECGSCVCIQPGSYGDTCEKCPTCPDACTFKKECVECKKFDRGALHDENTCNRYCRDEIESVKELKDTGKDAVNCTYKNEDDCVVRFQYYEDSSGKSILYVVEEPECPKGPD

A word on the IC50: it is the concentration that gives 50% inhibition. Read a high IC50 as weaker potency. Turning to H-RGDLADLRK(Benzoyl(4-F))-NH2 (free N-terminus; also called Peptide 3) [ST1-60, …(FB)], the IC50 in the experiment with αvβ3 integrin (purified) amounted to 500 nM; with αvβ1 integrin (purified), 600 nM; with αvβ6 integrin (purified) [1], 4.7 nM; with αvβ8 integrin (purified) it was 160 nM.

B1: ST1-61, …(FB) (peptide)
peptide: H-RGDLRELAK(Benzoyl(4-F))-NH2
SMILES: CC(C)C[C@H](NC(=O)[C@H](CCC(=O)O)NC(=O)[C@H](CCCNC(=N)N)NC(=O)[C@H](CC(C)C)NC(=O)[C@H](CC(=O)O)NC(=O)CNC(=O)[C@@H](N)CCCNC(=N)N)C(=O)N[C@@H](C)C(=O)N[C@@H](CCCCNC(=O)c1ccc(F)cc1)C(N)=O
notes: free N-terminus; also called Peptide 5
As to B1, the concentration for half-maximal inhibition (IC50) with αvβ3 integrin (purified) came out at 300 nM; in the experiment with αvβ1 integrin (purified), 2300 nM; with αvβ6 integrin (purified) [1] it was 1.1 nM; with αvβ8 integrin (purified) it was 2600 nM.

B2: FB-…(Ac)-PEG28 (peptide)
peptide: XGDLTYLKXX
modifications: N-terminal fluorobenzoyl (FB); acetyl (Ac) on the side chain of the C-terminal lysine; PEG28 attached to the C-terminal lysine
notes: N-fluorobenzoylated, C-PEGylated variant of ST1-62
B2: the IC50 in the experiment with αvβ6 integrin (purified) [2] is 15.5 nM.

B3: FB-…(FB) (peptide)
peptide: XGDLTYLKX
modifications: N-terminal fluorobenzoyl (FB); fluorobenzoyl (FB) on the side chain of the C-terminal lysine
notes: N-fluorobenzoylated variant of ST1-62
In the experiment with αvβ6 integrin (purified) [2], B3 gave a concentration for half-maximal inhibition (IC50) of 21.9 nM.

B4: Ac-…(FB) (peptide)
peptide: XGDLTYLKX
modifications: N-terminal acetyl (Ac); fluorobenzoyl (FB) on the side chain of the C-terminal lysine
notes: N-acetylated variant of ST1-62
In turn, B4 registered an IC50 in the experiment with αvβ6 integrin (purified) [2] of 1600 nM.

B5: FB-…(Ac) (peptide)
peptide: XGDLTYLKX
modifications: N-terminal fluorobenzoyl (FB); acetyl (Ac) on the side chain of the C-terminal lysine
notes: as for B3
In the case of B5, in the experiment with αvβ6 integrin (purified) [2], the IC50 is 4.3 nM.

Take H-VGDLTYLKK(4‑fluorobenzoyl)-NH2 (free N-terminus; also called Peptide 1) [ST1-62, …(FB)]: the half-inhibitory concentration (IC50) came out at 11 nM with αvβ6 integrin (purified) [1] and 5300 nM with αvβ8 integrin (purified).

B6: ST1-59, …(FB) (peptide)
peptide: H-RGDLMKLAK(Benzoyl(4-F))-NH2
SMILES: CSCC[C@H](NC(=O)[C@H](CC(C)C)NC(=O)[C@H](CC(=O)O)NC(=O)CNC(=O)[C@@H](N)CCCNC(=N)N)C(=O)N[C@@H](CCCCN)C(=O)N[C@@H](CC(C)C)C(=O)N[C@@H](C)C(=O)N[C@@H](CCCCNC(=O)c1ccc(F)cc1)C(N)=O
notes: free N-terminus; also called Peptide 2
As to B6, the IC50 with αvβ3 integrin (purified) is 2200 nM; with αvβ1 integrin (purified), 900 nM; with αvβ6 integrin (purified) [1] it was 2.7 nM; in the experiment with αvβ8 integrin (purified), 2590 nM.

B7: FB-…(FB)-PEG28 (peptide)
peptide: XGDLTYLKXX
modifications: N-terminal fluorobenzoyl (FB); fluorobenzoyl (FB) on the side chain of the C-terminal lysine; PEG28 attached to the C-terminal lysine
notes: also called ST1-92
B7 registered an IC50 with αvβ6 integrin (purified) [2] of 17.6 nM.

B8: Me-…(FB) (peptide)
peptide: XGDLTYLKX
modifications: N-terminal methyl (Me); fluorobenzoyl (FB) on the side chain of the C-terminal lysine
notes: N-methylated variant of ST1-62
With B8, the concentration for half-maximal inhibition (IC50) with αvβ6 integrin (purified) [2] came to 500 nM.
